1 molecule from patent US20050084496A1 (GOVERNMENT OF THE UNITED STATES OF AMERICA REP BY THE SECR …, published 2005) can be followed below.

For assay [1], the target named is T1, glycosylated gp120 (HIV-1SF2 gp120) (HIV-1 SF2, UniProt P03378 32-509, limits assumed, glycosylated).
T1 construct: domain: gp120
In words: ELISA, glycosylated and nonglycosylated HIV-1SF2 gp120 on plate, serial dilutions of scytovirin.

The target of another assay is T2, sCD4 (UniProt P01730 26-394).
T2 construct: Printed only as sCD4 (soluble CD4)
The experiment in a line: ELISA, 100 ng target on plate, detected with anti-scytovirin rabbit polyclonal. On the technique in general: ELISA stands for enzyme-linked immunosorbent assay.

Another assay addresses T3, human serum albumin (human, UniProt P02768 25-609).
T3 construct: also called HSA; HAS
The assay is described as above.

The target in another assay is BSA (UniProt P02769 25-607). Described as above.
Chain of BSA (P02769 25-607 limits assumed): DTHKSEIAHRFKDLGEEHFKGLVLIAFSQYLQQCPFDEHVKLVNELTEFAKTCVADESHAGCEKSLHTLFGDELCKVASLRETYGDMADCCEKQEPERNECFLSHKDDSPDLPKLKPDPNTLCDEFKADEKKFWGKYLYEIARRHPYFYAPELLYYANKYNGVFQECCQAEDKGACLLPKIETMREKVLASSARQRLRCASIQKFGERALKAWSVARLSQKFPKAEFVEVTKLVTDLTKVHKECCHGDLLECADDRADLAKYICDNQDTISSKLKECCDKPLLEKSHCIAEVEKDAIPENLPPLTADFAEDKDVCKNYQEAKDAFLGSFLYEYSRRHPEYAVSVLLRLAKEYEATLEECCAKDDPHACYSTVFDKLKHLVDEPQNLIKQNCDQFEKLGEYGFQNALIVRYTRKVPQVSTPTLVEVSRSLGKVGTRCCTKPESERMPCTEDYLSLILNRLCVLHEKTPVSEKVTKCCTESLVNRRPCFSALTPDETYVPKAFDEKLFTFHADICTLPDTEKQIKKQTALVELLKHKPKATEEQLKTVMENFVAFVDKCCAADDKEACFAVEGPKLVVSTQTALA

T3 sequence (P02768 25-609 limits assumed): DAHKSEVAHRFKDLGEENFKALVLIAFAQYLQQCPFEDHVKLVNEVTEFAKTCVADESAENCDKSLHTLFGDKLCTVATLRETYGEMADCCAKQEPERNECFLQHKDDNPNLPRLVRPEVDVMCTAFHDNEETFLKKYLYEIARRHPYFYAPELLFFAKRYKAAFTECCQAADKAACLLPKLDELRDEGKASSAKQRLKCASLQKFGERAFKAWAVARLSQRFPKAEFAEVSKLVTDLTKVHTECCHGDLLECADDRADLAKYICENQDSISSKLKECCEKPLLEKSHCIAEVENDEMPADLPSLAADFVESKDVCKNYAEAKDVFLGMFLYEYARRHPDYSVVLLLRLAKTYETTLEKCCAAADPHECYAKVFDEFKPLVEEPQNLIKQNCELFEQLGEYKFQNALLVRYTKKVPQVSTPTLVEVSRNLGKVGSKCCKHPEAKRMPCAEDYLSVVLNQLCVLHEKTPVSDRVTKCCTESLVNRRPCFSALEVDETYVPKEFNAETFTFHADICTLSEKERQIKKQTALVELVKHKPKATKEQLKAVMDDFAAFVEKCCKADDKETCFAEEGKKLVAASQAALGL

B1: scytovirin (other)
chain: GSGPTYCWNEANNPGGPNRCSNNKQCDGARTCSSSGFCQGTSRKPDPGPKGPTYCWDEAKNPGGPNRCSNSKQCDGARTCSSSGFCQGTAGHAAA
notes: Natural protein purified from an aqueous extract of cultured Scytonema varium; It has 95 residues, weighs 9,713 Da and has five intrachain disulfides (Cys20-Cys26, Cys32-Cys38, Cys68-Cys74, Cys80-Cys86, Cys7-Cys55); also called wild-type scytovirin; natural scytovirin
With B1, the binding result is reported as “binds” in assay [1], “no binding (tested: 100 ng of scytovirin)” with sCD4, “no binding (tested: 100 ng of scytovirin)” with human serum albumin and “no binding (tested: 100 ng of scytovirin)” with BSA.
